{
  "source": "paper PMC5835687",
  "about": "“Great Cause—Small Effect: Undeclared Genetically Engineered Orange Petunias Harbor an Inefficient Dihydroflavonol 4-Reductase” (Frontiers in Plant Science, 2018)",
  "key": {"[1]": {"substrate": "O=C1c2c(O)cc(O)cc2O[C@H](c2ccc(O)c(O)c2)[C@H]1O", "test": "DFR enzyme assay, radiolabelled substrate, as previously described", "format": "biochemical, Zea mays", "settings": "NADPH-dependent reduction; labelled compound"}, "purified protein": {"substrate": "O=C1c2c(O)cc(O)cc2O[C@H](c2cc(O)c(O)c(O)c2)[C@H]1O", "test": "purified protein", "settings": "NADPH-dependent reduction; labelled compound"}},
  "data": [
    {"protein": "recombinant A1 protein (maize DFR) (Zea mays) (protein, full-length A1 cDNA in pGEX-6P-1, GST fusion from E. coli, GST tag removed, purified; A1 CDS 1,074 bp) MERGAGASEKGTVLVTGASGFVGSWLVMKLLQAGYTVRATVRDPANVGKTKPLMDLPGATERLSIWKADLAEEGSFHDAIRGCTGVFHVATPMDFLSKDPENEVIKPTVEGMISIMRACKEAGTVRRIVFTSSAGTVNLEERQRPVYDEESWTDVDFCRRVKMTGWMYFVSKTLAEKAALAYAAEHGLDLVTIIPTLVVGPFISASMPPSLITALALITGNAPHYSILKQVQLIHLDDLCDAEIFLFENPAAAGRYVCSSHDVTIHGLAAMLRDRYPEYDVPQRFPGIQDDLQPVRFSSKKLQDLGFTFRYKTLEDMFDAAIRTCQEKGLIPLATAAGGDGFASVRAPGETEATIGA", "values": [
      {"measurement": "Km", "setting": "[1]", "result": 2.9, "unit": "µM"},
      {"measurement": "kcat", "setting": "[1]", "result": 0.70, "unit": "s⁻¹"},
      {"measurement": "Km", "setting": "purified protein", "result": 3.1, "unit": "µM"},
      {"measurement": "kcat", "setting": "purified protein", "result": 0.87, "unit": "s⁻¹"}
    ]},
    {"protein": "recombinant PhDFR (Petunia × hybrida DFR) (Petunia x hybrida) (protein) MASEAVHAPSPPVAVPTVCVTGAAGFIGSWLVMRLLERGYNVHATVRDPENKKKVKHLLELPKADTNLTLWKADLTVEGSFDEAIQGCQGVFHVATPMDFESKDPENEVIKPTVRGMLSIIESCAKANTVKRLVFTSSAGTLDVQEQQKLFYDQTSWSDLDFIYAKKMTGWMYFASKILAEKAAMEEAKKKNIDFISIIPPLVVGPFITPTFPPSLITALSLITGNEAHYCIIKQGQYVHLDDLCEAHIFLYEHPKADGRFICSSHHAIIYDVAKMVREKWPEYYVPTEFKGIDKDLPVVSFSSKKLTDMGFQFKYTLEDMYKGAIDTCRQKQLLPFSTRSAEDNGHNREAIAISAQNYASGKENAPVANHTEMLSNVEV", "values": [
      {"measurement": "Km", "setting": "purified protein", "result": 1.3, "unit": "µM"},
      {"measurement": "kcat", "setting": "purified protein", "result": 2.14, "unit": "s⁻¹"}
    ]}
  ]
}
